Measurements taken from patent US20250084155A1 (University of Texas, published 2025).
Numbering of substitutions follows the chain as printed.

B1: h77A-1.2 (antibody, V domains shown)
VH: QIQLVQSGAEVKKPGASVKVSCKASGYTFTNYGMNWVRQAPGQGLEWMGWINTYTGEPRYADDFKGRFTFTTDTSTSTAYMELRSLRSDDTAVYFCARYDHAMDYWGQGTLVTVSS
VL: EIVLTQSPDSLAVSLGERATINCKSSQSLLNSGTRKNYLAWYQQKAGQSPKLLIYWTSTRESGVPDRFSGSGSGTDFTLTIDSLQAEDVAVYYCKQSYTLYTFGGGTKVEIK
notes: captured by anti-human Fc
B2: h77A-1.31 (antibody, V domains shown)
VH: B1 VH with R59T, A102P
VL: B1 VL with S83R
notes: captured by anti-human Fc
B3: h77A-1.47 (antibody, V domains shown)
VH: B1 VH with A9T, R59T, A102L
VL: B1 VL with A86T
notes: captured by anti-human Fc
B4: h77A-1.48 (antibody, V domains shown)
VH: B1 VH with R59T, E82D, A102Y
VL: B1 VL with A46P
notes: captured by anti-human Fc
B5: h77A-1.24 (antibody, V domains shown)
VH: B1 VH with R59T, A102R
VL: B1 VL with A40T
notes: captured by anti-human Fc
B6: h77A-1.13 (antibody, V domains shown)
VH: B1 VH with R59T, A102P
VL: B1 VL
notes: captured by anti-human Fc
B7: h77A-1.37 (antibody, V domains shown)
VH: B1 VH with N31K, P58S, R59T, A102V
VL: B1 VL
notes: captured by anti-human Fc
B8: h77A-1.38 (antibody, V domains shown)
VH: B1 VH with A9T, R59T, S77R, A102L
VL: B1 VL
notes: captured by anti-human Fc
B9: h77A-1.21 (antibody, V domains shown)
VH: B1 VH with A9D, R59T
VL: B1 VL with T80S
notes: captured by anti-human Fc
B10: h77A-1.41 (antibody, V domains shown)
VH: B1 VH with R59T, S77T, A102V
VL: B1 VL with A46P
notes: captured by anti-human Fc
B11: h77A-1.36 (antibody, V domains shown)
VH: B1 VH with R59T, S77T, A102H
VL: B1 VL with L30F
notes: captured by anti-human Fc
B12: h77A-1.25 (antibody, V domains shown)
VH: B1 VH with R59T, A102F
VL: B1 VL with V91I
notes: captured by anti-human Fc
B13: h77A-1.50 (antibody, V domains shown)
VH: B1 VH with Q3H, A9V, R59T, A61T
VL: B1 VL with V91I
notes: captured by anti-human Fc
B14: h77A-1.40 (antibody, V domains shown)
VH: B1 VH with R59T, A102Y
VL: B1 VL with A12T, T99N
notes: captured by anti-human Fc
B15: h77A-1.43 (antibody, V domains shown)
VH: B1 VH with Q3H, R59T, A79V
VL: B1 VL with L53I
notes: captured by anti-human Fc
B16: h77A-1.42 (antibody, V domains shown)
VH: B1 VH with Q3H, R59T, A97T, A102R
VL: B1 VL
notes: captured by anti-human Fc
B17: h77A-1.35 (antibody, V domains shown)
VH: B1 VH with A9T, R59T, A102H
VL: B1 VL with A12T
notes: captured by anti-human Fc
B18: h77A-1.4 (antibody, V domains shown)
VH: B1 VH with R59I
VL: B1 VL
notes: captured by anti-human Fc
B19: h77A-1.33 (antibody, V domains shown)
VH: B1 VH with N31K, R59T, A102N
VL: B1 VL
notes: captured by anti-human Fc
B20: h77A-1.26 (antibody, V domains shown)
VH: B1 VH with R59T, S77R, A97T
VL: B1 VL
notes: captured by anti-human Fc
B21: h77A-1.45 (antibody, V domains shown)
VH: B1 VH with A9V, R59T, A79V
VL: B1 VL with T99S
notes: captured by anti-human Fc
B22: h77A-1.29 (antibody, V domains shown)
VH: B1 VH with R59T, A102F
VL: B1 VL with L30F
notes: captured by anti-human Fc
B23: h77A-1.5 (antibody, V domains shown)
VH: B1 VH with R59T
VL: B1 VL with T99N
notes: captured by anti-human Fc
B24: h77A-1.39 (antibody, V domains shown)
VH: B1 VH with R59T, A61S, S77R
VL: B1 VL with T99N
notes: captured by anti-human Fc
B25: h77A-1.9 (antibody, V domains shown)
VH: B1 VH with R59T, A102T
VL: B1 VL
notes: captured by anti-human Fc
B26: h77A-1.28 (antibody, V domains shown)
VH: B1 VH with A9T, R59T, A102T
VL: B1 VL
notes: captured by anti-human Fc
B27: h77A-1.20 (antibody, V domains shown)
VH: B1 VH with A9D, R59T, A61S
VL: B1 VL
notes: captured by anti-human Fc
B28: h77A-1.11 (antibody, V domains shown)
VH: B1 VH with R59T
VL: B1 VL with A46P
notes: captured by anti-human Fc
B29: h77A-1.3 (antibody, V domains shown)
VH: B1 VH with R59T, A102R
VL: B1 VL
notes: captured by anti-human Fc
B30: h77A-1.7 (antibody, V domains shown)
VH: B1 VH with R59T, A102F
VL: B1 VL
notes: captured by anti-human Fc
B31: h77A-1.53 (antibody, V domains shown)
VH: B1 VH with R59K, A61T, S77R
VL: B1 VL with A12S
notes: captured by anti-human Fc
B32: h77A-1.23 (antibody, V domains shown)
VH: B1 VH with R59T
VL: B1 VL with A40S, T99S
notes: captured by anti-human Fc
B33: h77A-1.15 (antibody, V domains shown)
VH: B1 VH with R59T, A102V
VL: B1 VL
notes: captured by anti-human Fc
B34: h77A-1.52 (antibody, V domains shown)
VH: B1 VH with A9V, T28I, A102R
VL: B1 VL
notes: captured by anti-human Fc

What follows are binders tested against T1, HSP70 (human HSP70; the antigen of the binning, humanization and variant binding assays) (human, UniProt P0DMV8 1-641, limits assumed) (assay: BLI, anti-human Fc capture, antigen 100 nM).
T1 construct: also called hu HSP70
T1 sequence (P0DMV8 whole entry, change not shown): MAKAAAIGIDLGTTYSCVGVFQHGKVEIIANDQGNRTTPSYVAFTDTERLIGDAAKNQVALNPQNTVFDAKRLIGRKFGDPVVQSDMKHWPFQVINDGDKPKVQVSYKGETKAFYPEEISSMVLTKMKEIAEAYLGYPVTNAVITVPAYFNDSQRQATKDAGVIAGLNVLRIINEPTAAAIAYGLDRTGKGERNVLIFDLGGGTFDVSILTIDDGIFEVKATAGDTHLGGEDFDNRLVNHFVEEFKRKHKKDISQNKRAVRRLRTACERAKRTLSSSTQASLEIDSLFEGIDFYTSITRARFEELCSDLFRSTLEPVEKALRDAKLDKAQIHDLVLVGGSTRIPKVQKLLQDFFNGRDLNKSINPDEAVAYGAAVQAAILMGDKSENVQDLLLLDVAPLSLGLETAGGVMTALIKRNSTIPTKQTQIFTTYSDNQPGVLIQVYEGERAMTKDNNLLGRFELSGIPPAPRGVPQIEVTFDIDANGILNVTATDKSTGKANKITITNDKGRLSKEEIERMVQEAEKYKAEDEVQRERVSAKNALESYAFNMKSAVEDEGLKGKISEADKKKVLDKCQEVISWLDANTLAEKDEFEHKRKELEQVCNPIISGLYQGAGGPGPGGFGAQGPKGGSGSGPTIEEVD
Protocol: Binding assays were performed as follows. Antibody variants were immobilized using anti-human Fc onto the surface of a series of biosensors at […]. Antigen, at 100 nM, was passed over the surface to generate a binding response. Binding data for the antibody:antigen interactions were collected at 25° C. on the biosensors. In Table 14, X=610 represents captured antigen value (nM) at the beginning of the dissociation phase (measured at 610 seconds after the biosensor was initially contacted with antigen) and X=1495 represents captured antigen value (nM) at the end of the dissociation phase (measured at 1495 seconds after the biosensor was initially contacted with antigen). In Table 14, antibodies with an X=610 value greater than 0.2 and a % dissociation less than 10% are shown in bold.

% Diss | Binder
-1.81% | B1
-3.52% | B2
13.6% | B3
34.5% | B4
33.6% | B5
13.4% | B6
22.8% | B7
10.5% | B8
10% | B9
34.2% | B10
6.96% | B11
23.2% | B12
11.2% | B13
11.9% | B14
21.1% | B15
33.5% | B16
4.38% | B17

% Diss | Binder
31.8% | B18
20.6% | B19
11.8% | B20
33.9% | B21
28.3% | B22
25.3% | B23
21% | B24
18.3% | B25
18.8% | B26
12.1% | B27
10.7% | B28
28.7% | B29
30.2% | B30
11.1% | B31
24% | B32
33% | B33
-115% | B34
